Experimental data published in patent US20120213844A1 (ALZA, published 2012).
Read-outs that look alike come from different tables or passages of the source. Positions of bridges follow the written chain, without caps; N, C: chain ends. No end group written: not given here.

What was measured:
[1] = biological target: T1, sEGFR-MMB (dimeric sEGFR mimetibody) (human); assay: phage ELISA on coated sEGFR-MMB, chemiluminescence (background typically <200 units)
T1 construct: Disulfide-linked homodimer: QIQ, sEGFR, flexible linker, J segment, human IgG1 hinge, CH2, CH3; also called sEGFR-Fc; dimeric EGFR
T1 sequence (chain, as listed by the source limits assumed): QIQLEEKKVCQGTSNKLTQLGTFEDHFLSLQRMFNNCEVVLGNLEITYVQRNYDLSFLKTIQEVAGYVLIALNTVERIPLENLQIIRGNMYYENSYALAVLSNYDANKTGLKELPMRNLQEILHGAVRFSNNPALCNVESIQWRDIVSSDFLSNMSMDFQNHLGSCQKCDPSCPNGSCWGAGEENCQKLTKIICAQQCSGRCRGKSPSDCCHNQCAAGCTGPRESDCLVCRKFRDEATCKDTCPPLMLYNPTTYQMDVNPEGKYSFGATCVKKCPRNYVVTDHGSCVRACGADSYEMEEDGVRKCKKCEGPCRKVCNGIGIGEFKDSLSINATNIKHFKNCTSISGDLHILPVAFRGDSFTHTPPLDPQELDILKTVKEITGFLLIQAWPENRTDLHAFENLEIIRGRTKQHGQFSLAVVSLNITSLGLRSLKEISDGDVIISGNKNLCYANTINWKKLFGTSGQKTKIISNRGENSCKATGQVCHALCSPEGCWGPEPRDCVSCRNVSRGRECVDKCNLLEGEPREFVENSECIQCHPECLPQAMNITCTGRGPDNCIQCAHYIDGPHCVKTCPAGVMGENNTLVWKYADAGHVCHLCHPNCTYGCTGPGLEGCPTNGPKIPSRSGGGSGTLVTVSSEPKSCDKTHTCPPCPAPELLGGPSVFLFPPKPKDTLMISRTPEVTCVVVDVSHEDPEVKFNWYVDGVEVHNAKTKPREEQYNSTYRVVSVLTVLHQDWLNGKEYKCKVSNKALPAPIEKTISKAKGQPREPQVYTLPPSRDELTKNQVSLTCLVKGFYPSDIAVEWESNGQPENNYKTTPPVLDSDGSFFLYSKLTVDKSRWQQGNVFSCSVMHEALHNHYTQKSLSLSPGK
Experimental: (§1) The protein solution was removed and wells were rinsed twice with Tris-Buffered Saline containing 0.05% Tween-20 (TBS-T) using a plate washer (Embla). The wells were blocked with Starting Block in TBS for 1 hr at room temperature and rinsed twice with TBS-T. An equal volume of phage supernatant and Starting Block in TBS were incubated in the wells for 1 hr at room temperature, and the wells were rinsed five times with TBS-T. Anti-M13/horseradish peroxidase conjugate (Amersham), diluted 1:5000 in Starting Block in TBS, was added into the wells and incubated for 1 hour at room temperature, and then the wells were rinsed five times with TBS-T. Finally, chemiluminescent peroxidase substrate (Roche) was added to the wells, and chemiluminescence was measured on a Tecan plate reader.

[2] = biological target: T1, sEGFR-MMB (dimeric sEGFR mimetibody); assay: as above; remark: listed apart in the source
Experimental: as §1

[3] = biological target: T1, sEGFR-MMB (dimeric sEGFR mimetibody); assay: as above; remark: listed apart in the source
Experimental: as §1

[4] = biological target: T1, sEGFR-MMB (dimeric sEGFR mimetibody); assay: as above; remark: listed apart in the source
Experimental: as §1

[5] = biological target: T1, sEGFR-MMB (dimeric sEGFR mimetibody); assay: as above; remark: listed apart in the source
Experimental: as §1

[6] = biological target: T2, human EGFR on tumor cells (human, UniProt P00533 25-1210); assay: flow cytometry on A431 cells, without EGF
T2 construct: whole, on cells; also called EGFR on A431 cells; EGFR on MDA-MB-468 cells

Control-MMB (CNTO 360) [7] = biological target: T3, Control-MMB (CNTO 360) (Homo sapiens (Human), UniProt P0DOX5 111-449 = IgG part); assay: phage ELISA, Control-MMB coated at 5 ug/ml
T3 construct: MMB scaffold without a peptide; described as human IgG1 heavy chain dimer lacking the variable and most of the CH1 domains; also called blank mimetibody scaffold protein
Experimental: The plates were held overnight at room temperature, washed twice with TBST (0.5M Tris Base, 9% NaCl, 0.05% tween, pH 7.6), and loaded with 200 μL per well of Starting Block (Pierce). […] The plates were held at room temperature for 1.5 hours for blocking. Plates were then washed twice with TBST and phage were added. The phage solutions were crude phage supernatant from overnight cultures diluted four-fold with Starting Block. After a one-hour incubation, the plates were washed thrice with TBST and 100 μL of a 1:5000 dilution of phage binding antibody conjugate (α-M13-HRP) was added to the wells. […] After a one-hour incubation the plates were washed five times with TBST, 100 μL of POD (BM Chemiluminescence ELISA substrate; Roche Applied Science) was added, and chemiluminescene recorded.

[8] = biological target: T2, human EGFR on tumor cells; assay: cell-based or functional assay
Streptavidin = biological target: T4, Streptavidin; assay: phage ELISA on streptavidin-coated wells without receptor [panel C]
T4 construct: also called Streptavidin alone; SA
Experimental: as §1
(§2) Confirmatory Phage ELISA. […] The binding reaction was incubated for 1 hr at room temperature, and then bound phage were detected with anti-M13/HRP as above. For ELISAs with biotinylated receptors, streptavidin at 5 μg/ml was coated in the wells overnight at 4° C. […] The wells were rinsed with TBS-T and then blocked with Starting Block. Bound phage were washed and detected with anti-M13/HRP as described above.

Control-MMB (CNTO 360) [9] = biological target: T3, Control-MMB (CNTO 360); assay: phage ELISA on coated Control-MMB in the presence of EGF [panel B]
Experimental: as §1, §2

B1: phage clone displaying SEQ ID NO: 46 (S20 hit) (peptide)
chain: GGGYICTPSDIDSWYICYLGGGSGGSGG
notes: pIX phagemid display, library S20; not shown: M13 phage coat protein pIX (MSVL...)
In the case of B1, the ELISA [1] is reported as 6620 units.

B2: phage clone displaying SEQ ID NO: 38 (S19 hit) (peptide)
chain: GGGYDCMIRADGSLICWCGGGSGGSGG
notes: pIX phagemid display, library S19; not shown: M13 phage coat protein pIX (MSVL...)
B2 showed an ELISA [2] of 1290 units.

B3: phage clone P177 (SEQ ID NO: 52) (peptide)
chain: GGGDACTMVFLWCSLGGGSGGSGG
notes: pIX phagemid display, library S16; also called PP177; not shown: M13 phage coat protein pIX (MSVL...)
B3 showed an ELISA [3] of 8660 units.

B4: phage clone displaying SEQ ID NO: 26 (S18 hit) (peptide)
chain: GGGKHCILFEKTVYCAKGGGSGGSGG
notes: pIX phagemid display, library S18; not shown: M13 phage coat protein pIX (MSVL...)
Binder B4 has an ELISA [4] of 9110 units.

B5: phage clone displaying SEQ ID NO: 33 (S18 hit) (peptide)
chain: GGGTDCVRFGETIYCIVGGGSGGSGG
notes: as for B4
With B5 the ELISA [4] was 13300 units.

B6: phage clone displaying SEQ ID NO: 10 (S15 hit) (peptide)
chain: GGGYRLFVDESIFFCTRLGGGSGGSGG
notes: pIX phagemid display, library S15; not shown: M13 phage coat protein pIX (MSVL...)
B6 was tested, and the ELISA [5] was 3080 units.

B7: phage clone displaying SEQ ID NO: 18 (S15 hit) (peptide)
chain: GGGPIFSSLPVLYCTSQLGGGSGGSGG
notes: as for B6
Binder B7 has an ELISA [5] of 1420 units.

B8: P190-MMB construct 4316 (Fc fusion)
chain: GGDPCTWEVWGRECLQGGGGSGGGGSGGGGSGGGGSCPPCPAPEAAGGPSVFLFPPKPKDTLMISRTPEVTCVVVDVSQEDPEVQFNWYVDGVEVHNAKTKPREEQFNSTYRVVSVLTVLHQDWLNGKEYKCKVSNKGLPSSIEKTISKAKGQPREPQVYTLPPSQEEMTKNQVSLTCLVKGFYPSDIAVEWESNGQPENNYKTTPPVLDSDGSFFLYSRLTVDKSRWQEGNVFSCSVMHEALHNHYTQKSLSLSLGK
notes: Human IgG4 hinge-CH2-CH3 with two Leu to Ala
In the case of B8, the “fold increase in FACS signal” value [6] is reported as roughly 10 fold.

B9: phage displaying P190 on pIX (SEQ ID NO: 55) (peptide)
chain: GGGDPCTWEVWGRECLQGGGSGGSGG
notes: pIX phagemid display, library S18; on average one peptide per particle; also called PHPEP190; pIX-190; not shown: M13 phage coat protein pIX (MSVL...)
B9: no binding (Control-MMB (CNTO 360) [7]).

B10: phage clone displaying SEQ ID NO: 24 (S18 hit) (peptide)
chain: GGGAKCIAFGNSVYCLNGGGSGGSGG
notes: as for B4
With B10 the ELISA [4] was 31500 units.

B11: phage clone displaying SEQ ID NO: 29 (S18 hit) (peptide)
chain: GGGRACITFGKVVYCEVGGGSGGSGG
notes: as for B4
B11 was tested, and the ELISA [4] was 30700 units.

B12: phage clone P180 (SEQ ID NO: 37) (peptide)
chain: GGGMICYLVDSGNIICYKGGGSGGSGG
notes: pIX phagemid display, library S19; also called PP180; not shown: M13 phage coat protein pIX (MSVL...)
B12 gave an ELISA [2] of 8810 units.

B13: phage clone displaying SEQ ID NO: 30 (S18 hit) (peptide)
chain: GGGAYCSFVAGDLVCQVGGGSGGSGG
notes: as for B4
B13 gave an ELISA [4] of 19800 units.

B14: P190-DOXIL (peptide)
peptide: DPCTWEVWGRECLQ
modifications: disulfide 3-12 (inferred); not fully specified (N-terminus); also: inserted into doxorubicin-loaded liposomes
In the case of B14, the “IC50 D4, cell killing of MDA-MB-468 cells (1 h treatment, 4 days)” value [8] is reported as 120 µg/mL and the “IC50 D6, cell killing of MDA-MB-468 cells (1 h treatment, 6 days)” value [8] is reported as 35 µg/mL.

B15: phage clone displaying SEQ ID NO: 28 (S18 hit) (peptide)
chain: GGGTDCIRFGVLWYCLVGGGSGGSGG
notes: as for B4
B15 showed an ELISA [4] of 4750 units.

B16: phage clone displaying SEQ ID NO: 11 (S15 hit) (peptide)
chain: GGGELGLPTLLCWPTDTLGGGSGGSGG
notes: as for B6
Binder B16 has an ELISA [5] of 9380 units.

B17: phage clone displaying SEQ ID NO: 21 (S15 hit) (peptide)
chain: GGGLPDLICAVDSGTSGAGGGSGGSGG
notes: as for B6
In the case of B17, the ELISA [5] is reported as 1160 units.

B18: phage clone displaying SEQ ID NO: 34 (S18 hit) (peptide)
chain: GGGYDCVSFGAVAYCPQGGGSGGSGG
notes: as for B4
B18 showed an ELISA [4] of 3200 units.

B19: phage clone P174 (SEQ ID NO: 51) (peptide)
chain: GGGSGCLDALWQCVYGGGSGGSGG
notes: pIX phagemid display, library S16; also called PP174; not shown: M13 phage coat protein pIX (MSVL...)
For B19, the ELISA [3] was 34600 units.

B20: phage clone displaying SEQ ID NO: 27 (S18 hit) (peptide)
chain: GGGDSCIQFANLLYCAIGGGSGGSGG
notes: as for B4
Binder B20 has an ELISA [4] of 53200 units.

B21: phage clone displaying SEQ ID NO: 23 (S18 hit) (peptide)
chain: GGGAGCIAFVDVVYCARGGGSGGSGG
notes: as for B4
Work on B21 yielded an ELISA [4] of 6380 units.

B22: phage clone displaying SEQ ID NO: 25 (S18 hit) (peptide)
chain: GGGRDCIIFDKTVYCVIGGGSGGSGG
notes: as for B4
Binder B22 has an ELISA [4] of 17100 units.

B23: phage clone P175 (SEQ ID NO: 13) (peptide)
chain: GGGLPDDSLPELICKVRGGGGSGGSGG
notes: pIX phagemid display, library S15; also called PP175; not shown: M13 phage coat protein pIX (MSVL...)
B23 was tested, and the ELISA [5] was 6790 units.

B24: phage clone displaying SEQ ID NO: 47 (S20 hit) (peptide)
chain: GGGSVCVGTAFPGWMVCGPGGGSGGSGG
notes: as for B1
Work on B24 yielded an ELISA [1] of 4770 units.

B25: phage clone displaying SEQ ID NO: 41 (S19 hit) (peptide)
chain: GGGCDCREAVSASLVCRYGGGSGGSGG
notes: as for B2
B25 gave an ELISA [2] of 3350 units.

B26: phage clone displaying SEQ ID NO: 35 (S18 hit) (peptide)
chain: GGGRGCVVFGDNIYCIVGGGSGGSGG
notes: as for B4
B26 was tested, and the ELISA [4] was 22000 units.

B27: phage clone displaying SEQ ID NO: 43 (S20 hit) (peptide)
chain: GGGPTCDSATRRVLTICADGGGSGGSGG
notes: as for B1
Binder B27 has an ELISA [1] of 5420 units.

B28: phage clone displaying SEQ ID NO: 12 (S15 hit) (peptide)
chain: GGGVSGILPILVCHPAATGGGSGGSGG
notes: as for B6
B28 showed an ELISA [5] of 1110 units.

B29: phage clone P179 (SEQ ID NO: 39) (peptide)
chain: GGGGPCVLIRDYYLLCLEGGGSGGSGG
notes: pIX phagemid display, library S19; also called PP179; not shown: M13 phage coat protein pIX (MSVL...)
For B29, the ELISA [2] was 14000 units.

B30: phage clone displaying SEQ ID NO: 32 (S18 hit) (peptide)
chain: GGGSDCVLFGSKLFCSAGGGSGGSGG
notes: as for B4
With B30 the ELISA [4] was 35300 units.

B31: phage clone P176 (SEQ ID NO: 48) (peptide)
chain: GGGKTCVSTTFDLWFVCFAGGGSGGSGG
notes: pIX phagemid display, library S20; also called PP176; not shown: M13 phage coat protein pIX (MSVL...)
B31 was tested, and the ELISA [1] was 37400 units, the binding result (Streptavidin) was “no binding” and the binding result (Control-MMB (CNTO 360) [9]) was “no binding”.

B32: phage clone displaying SEQ ID NO: 19 (S15 hit) (peptide)
chain: GGGGADTLPDLLCWESSLGGGSGGSGG
notes: as for B6
For B32, the ELISA [5] was 5720 units.

B33: phage clone displaying SEQ ID NO: 45 (S20 hit) (peptide)
chain: GGGDSCCSFLTDGTVVCSLGGGSGGSGG
notes: as for B1
Work on B33 yielded an ELISA [1] of 9540 units.

B34: phage clone P178 (SEQ ID NO: 53) (peptide)
chain: GGGRWCYFWWITICELGGGSGGSGG
notes: pIX phagemid display, library S17; also called PP178; not shown: M13 phage coat protein pIX (MSVL...)
Binder B34 has an ELISA [3] of 7910 units.

B35: phage clone P173 (SEQ ID NO: 31) (peptide)
chain: GGGTDCVIFGLETYCLRGGGSGGSGG
notes: pIX phagemid display, library S18; also called PP173; not shown: M13 phage coat protein pIX (MSVL...)
Binder B35 has an ELISA [4] of 37900 units.

B36: phage clone displaying SEQ ID NO: 40 (S19 hit) (peptide)
chain: GGGAFCRLDFNQWLTCLVGGGSGGSGG
notes: as for B2
Binder B36 has an ELISA [2] of 2580 units.

B37: phage clone displaying SEQ ID NO: 20 (S15 hit) (peptide)
chain: GGGTVFTLPELVCVVAGTGGGSGGSGG
notes: as for B6
In the case of B37, the ELISA [5] is reported as 1520 units.

B38: phage clone displaying SEQ ID NO: 14 (S15 hit) (peptide)
chain: GGGHVSLQSLPELICVVSGGGSGGSGG
notes: as for B6
B38 was tested, and the ELISA [5] was 1360 units.

B39: phage clone displaying SEQ ID NO: 44 (S20 hit) (peptide)
chain: GGGWMCFLEGYGASLMCQCGGGSGGSGG
notes: as for B1
Work on B39 yielded an ELISA [1] of 4800 units.

B40: phage clone displaying SEQ ID NO: 17 (S15 hit) (peptide)
chain: GGGPIDDESLPVLYCVTSGGGSGGSGG
notes: as for B6
B40 was tested, and the ELISA [5] was 1780 units.

B41: phage clone displaying SEQ ID NO: 49 (S20 hit) (peptide)
chain: GGGLLCATTSFRDWFVCFTGGGSGGSGG
notes: as for B1
In the case of B41, the ELISA [1] is reported as 4510 units.

B42: phage clone displaying SEQ ID NO: 15 (S15 hit) (peptide)
chain: GGGNWFSLPTLLCFPLNPGGGSGGSGG
notes: as for B6
Binder B42 has an ELISA [5] of 3670 units.

B43: phage clone displaying SEQ ID NO: 16 (S15 hit) (peptide)
chain: GGGSTITSLPTLQCWPILGGGSGGSGG
notes: as for B6
Binder B43 has an ELISA [5] of 13300 units.
